Substitutions are numbered along the chain they refer to. Names may count otherwise.
B1: Sol-5-LOX: more soluble form of human 5-LOX, SEQ ID NO: 2 (W13E, F14H, Δ40-44GS, W75G, L76S, C240A, C561A) (protein)
chain: MGSSHHHHHHSSGLVPRGSHMPSYTVTVATGSQEHAGTDDYIYLSLVGSAGCSEKHLLDKGSFERGAVDSYDVTVDEELGEIQLVRIEKRKYGSNDDWYLKYITLKTPHGDYIEFPCYRWITGDVEVVLRDGRAKLARDDQIHILKQHRRKELETRQKQYRWMEWNPGFPLSIDAKCHKDLPRDIQFDSEKGVDFVLNYSKAMENLFINRFMHMFQSSWNDFADFEKIFVKISNTISERVMNHWQEDLMFGYQFLNGANPVLIRRCTELPEKLPVTTEMVECSLERQLSLEQEVQQGNIFIVDFELLDGIDANKTDPCTLQFLAAPICLLYKNLANKIVPIAIQLNQIPGDENPIFLPSDAKYDWLLAKIWVRSSDFHVHQTITHLLRTHLVSEVFGIAMYRQLPAVHPIFKLLVAHVRFTIAINTKAREQLICECGLFDKANATGGGGHVQMVQRAMKDLTYASLCFPEAIKARGMESKEDIPYYFYRDDGLLVWEAIRTFTAEVVDIYYEGDQVVEEDPELQDFVNDVYVYGMRGRKSSGFPKSVKSREQLSEYLTVVIFTASAQHAAVNFGQYDWASWIPNAPPTMRAPPPTAKGVVTIEQIVDTLPDRGRSCWHLGAVWALSQFQENELFLGMYPEEHFIEKPVKEAMARFRKNLEAIVSVIAERNKKKQLPYYYLSPDRIPNSVAI
modifications: Δ40-44 replaced by GS; Sol-5-LOX
B2: S663D-Stable-5-LOX: Stable-5-LOX with Serine 663 replaced with Aspartic acid, SEQ ID NO: 4, mimics phosphorylated state (protein)
chain: B1 chain with K671E, K672N, K673L, S681D
modifications: S663D-Stable-5-LOX

How the values were obtained:
[1] = Melting curves (thermal denaturation, SYPRO Orange fluorescence); type: physicochemical; conditions: fluorescence vs temperature, four independent experiments in triplicate
Description: Melting temperature assays were performed according to the protocol described by Ericsson et al. (31) Protein was diluted to 1 μM in a final volume of 150 μl 5×SYPRO® Orange protein stain (Invitrogen, Carlsbad, Calif.). Samples were aliquoted in triplicate volumes of 40 μl in a 96-well reaction plate. The plate was subjected to a linear thermal shift from 5 to 94° C. in one degree increments in a 7500 Fast Real-Time PCR System (Applied Biosystems, Branchburg, N.J.). The SYBR Green cutoff filter was used for fluorescence detection of denaturing protein-SYPRO® Orange binding. The resulting data were exported to Sigma Plot 9, and the sigmoidal part of the curve was averaged for each triplicate. The averaged curves were subsequently fit to a four parameter sigmoidal equation. The Tm values reported are the results of four independent experiments, each in triplicate, with multiple protein preparations.

[2] = Concentration to which the protein can be concentrated; type: physicochemical
[3] = Enzyme half-life at 37° C. by monitoring enzyme activity (ΔA238) over 24 hrs; type: biochemical
[4] = Product assays (HPLC of arachidonic acid oxygenation products); type: biochemical
Description: Incubations were conducted in 0.5 ml 0.1 M Tris pH 7.5 containing 150 mM NaCl and 1 mM CaCl2 with 1-20 μg/ml 5-LOX enzyme. The reaction was initiated by addition of arachidonic acid (10-100 μM) added in 1-5 μl ethanol and monitored by UV spectroscopy until completion of reaction (5-10 min). Products were extracted by adjusting the solution to ˜pH 4 by addition of 50 μl 1 M KH2PO4 plus 5 μl 1N HCl and vigorous mixing with two volumes of dichloromethane. After a brief centrifugation to clear the phases, the lower organic layer was collected, washed twice with 0.5 ml water, taken to dryness under a stream of nitrogen, and then dissolved in a small volume of methanol for storage at −20° C. prior to HPLC. Reversed-phase HPLC was carried out using Agilent 1100 series equipment with a Waters C18 Symmetry column (25×0.46 cm), a solvent of acetonitrile/water/glacial acetic acid (60:40:0.01, v/v/v) or methanol/water/glacial acetic acid (80:20:0.01, v/v/v), a flow rate of 1 ml/min, with UV monitoring at 205 nm, 220 nm, 235 nm and 270 nm. The chirality of the product was confirmed as 5S: Mobile phase hexane/methanol 100:2; 1 ml/min; Chiralpak AD column (4.6×250 mm). The HETEs were made into the methyl esters before chiral analysis using ethereal diazomethane.

Row | Molecule | Tm (with s.d.) [1] | can be concentrated to [2] [mg/mL] | half-life at 37° C. [3] [h] | products formed from arachidonic acid ([4]; HPLC chromatogram, FIG. 6D / FIG. 8) | change of product specificity by the S663D amino acid change ([4]; Serine 663 replaced with Aspartic acid, method not described)
1 | B1 | 56.6(±0.4) ° C. | 2 | ~7 | produces both the intermediate 5S-HPETE and the product leukotriene A4 | 
2 | B2 |  |  |  |  | converted the enzyme from a 5-LOX to a 15-LOX

Source: US8877476B2, “Soluble and stable human 5-lipoxygenase” (Board of Supervisors of Louisiana State University and …, priority 2010, dated 2014)
